Biological target: T1, human α2-polyHis-tag (human, UniProt Q96T91 24-129)
T1 construct: also called human α2 polypeptide; alpha-2; not shown: polyHis tag
T1 sequence (looked up): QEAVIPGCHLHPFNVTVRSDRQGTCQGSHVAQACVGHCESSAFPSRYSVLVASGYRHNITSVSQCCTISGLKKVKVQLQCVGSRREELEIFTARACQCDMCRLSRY
Experiment: heterodimerization assay: co-transfection, immunoprecipitation, Western blot
Experimental: A human α2-polyHis-tag mammalian expression vector and a human β10-FLAG-tag mammalian expression vector were co-transfected into 293 cells and serum free conditioned media was harvested after 72 hours. Immunoprecipitation was done using anti-FLAG M2-Agarose affinity beads (Cat# A1205, Sigma, St. Louis, Mo.). A Western blot of this immunoprecipitate was probed with affinity purified anti-α2 rabbit polyclonal antibodies (example 4) that had been conjugated to Horse Radish Peroxidase (Linx HRP Rapid Protein Conjugation Kit, cat# K8050-01, Invitrogen Corp., Carlsbad, Calif.). A strong α2-polyHis-tag band was observed using the ECL Western Blot detection kit (cat#RPN 2106, Amersham Pharmacia Biotech, Piscataway, N.J.). […] No α2-polyHis-tag band was observed if either of these 2 components was left out of the experiment or if plain agarose beads (i.e. without anti-FLAG antibodies) were used for the immunoprecipitation step.

B1: human β10-FLAG-tag (ligand)
chain: ASSGNLRTFVGCAVREFTFLAKKPGCRGLRITTDACWGRCETWEKPILEPPYIEAHHRVCTYNETKQVTVKLPNCAPGVDPFYTYPVAIRCDCGACSTATTECETI
notes: Secreted from transfected 293 cells; the cleavage site is predicted, not determined; also called human β10 polypeptide; beta-10; not shown: FLAG tag
binding result: binds
